Measurements published in patent publication US8187838B2, “β-Galactoside-α2, 6-sialyltransferase, a gene encoding thereof, and a method for producing thereof” (Japan Tobacco Inc., priority 2006, dated 2012).
Entries after “also recorded” stand apart in the source; their conditions may differ.

Tests used:
[1] = Sialyltransferase activity in homogenate of E. coli carrying the JT-ISH-224 gene clones (14C-NeuAc transfer to lactose); format: biochemical
Description: Sialyltransferase activity was measured as described in J. Biochem., 120, 104-110 (1996) (which is hereby incorporated by reference in its entirety). More specifically, the enzymatic reaction was accomplished by using CMP-NeuAc (70 nmol, containing about 20,000 cpm CMP-NeuAc in which NeuAc was labeled with ^14C; NeuAc represents N-acetylneuraminic acid) as a glycosyl donor substrate, lactose (1.25 μmol) as a glycosyl acceptor substrate, NaCl added to give a concentration of 0.5 M, and the enzyme-containing reaction solution (30 μl) prepared as described above. The enzymatic reaction was carried out at 25° C. for about 10 to 180 minutes. After completion of the reaction, 1.97 ml of 5 mM phosphate buffer (pH 6.8) was added to the reaction solution, which was then applied to a Dowex 1×8 (PO4^3− form, 0.2×2 cm, BIO-RAD) column. The radioactivity was measured for the reaction product, i.e., sialyllactose contained in the eluate (0 to 2 ml) from this column to calculate the enzyme activity. One enzyme unit (1 U) is defined as the amount of enzyme required to transfer 1 micromole of sialic acid per minute.
An induction experiment of protein expression was performed on the five clones obtained in (3) above (i.e., ISH224-N0C0/pTrc, ISH224-N1C0/pTrc, ISH224-N2C0/pTrc, ISH224-N3C0/pTrc and ISH224-N3.1C0/pTrc). A single colony of E. coli TB1 having the expression vector pTrc99A carrying each clone was inoculated into LB medium (6 ml) containing an antibiotic, ampicillin (final concentration 100 μg/mL), and pre-cultured at 30° C. to about A600=0.5, followed by addition of IPTG (isopropyl-β-D(−)-thiogalactopyranoside, Wako Pure Chemical Industries, Ltd., Japan) at a final concentration of 1 mM. After culturing with shaking at 30° C. for an additional 4 hours, the cells in 4 ml culture solution were collected by centrifugation. These cells were suspended in 200 μl of 20 mM Bis-Tris buffer (pH 7.0) containing 0.336% Triton® X-100 and 0.5 M sodium chloride, and ultrasonically homogenized under ice cooling. The resulting homogenate was defined as a crude enzyme solution, diluted 200-fold with 20 mM cacodylate buffer (pH 5.0) containing 0.336% Triton® X-100, and then provided for activity measurement. The reaction was carried out in duplicate. The reaction conditions are as indicated in the footnotes of Tables 1-1 and 1-2.
Reaction Conditions Reaction composition:
Reaction time: 2 minutes Reaction temperature: 30° C.

[2] = Confirmation of binding mode of sialic acid with pyridylaminated lactose, HPLC of product; format: biochemical; conditions: crude enzyme solution, CMP-NeuAc, 25° C., 18 hours
Description: To determine the binding mode of sialic acid, a reaction using PA-lactose as a substrate was then performed. The enzymatic reaction was accomplished by using the resulting crude enzyme solution and a pyridylaminated sugar chain as a glycosyl acceptor substrate. The pyridylaminated sugar chain used for analysis was pyridylaminated lactose (Galβ1-4Glc-PA, Takara Bio Inc., Japan). To 5 μl of the crude enzyme solution, 1.5 μl of 5 mM CMP-NeuAc and 1.5 μl of 10 pmol/μl glycosyl acceptor substrate were added and reacted at 25° C. for 18 hours. After the reaction, the reaction solution was treated at 100° C. for 2 minutes to inactivate the enzyme, followed by HPLC to analyze the reaction product. The HPLC system used was Shimadzu LC10A (Shimadzu Corporation, Japan) and the analytical column used was Takara PALPAK Type R (Takara Bio Inc., Japan). […] The analysis was performed under the following conditions: flow rate: 1 ml/min, column temperature: 40° C., detection: fluorescence (Ex: 320 nm, Em: 400 nm).
The crude enzyme solution prepared in (4) above from the ISH224-N1C0 or ISH224-N0C0 clone was used to examine whether sialyltransferase expressed by E. coli cells into which ISH224-N0C0/pTrc or ISH224-N1C0/pTrc had been introduced had β-galactoside-α2,6-sialyltransferase activity. […] As a result, PA-6′-sialyllactose (Neu5Acα2-6Galβ1-4Glc-PA) was detected, as in the case of Example 1.

B1: ISH224-N1C0 (protein, listed as Photobacterium sp.)
chain: MSEENTQSIIKNDINKTIIDEEYVNLEPINQSNISFTKHSWVQTCGTQQLLTEQNKESISLSVVAPRLDDDEKYCFDFNGVSNKGEKYITKVTLNVVAPSLEVYVDHASLPTLQQLMDIIKSEEENPTAQRYIAWGRIVPTDEQMKELNITSFALINNHTPADLVQEIVKQAQTKHRLNVKLSSNTAHSFDNLVPILKELNSFNNVTVTNIDLYDDGSAEYVNLYNWRDTLNKTDNLKIGKDYLEDVINGINEDTSNTGTSSVYNWQKLYPANYHFLRKDYLTLEPSLHELRDYIGDSLKQMQWDGFKKFNSKQQELFLSIVNFDKQKLQNEYNSSNLPNFVFTGTTVWAGNHEREYYAKQQINVINNAINESSPHYLGNSYDLFFKGHPGGGIINTLIMQNYPSMVDIPSKISFEVLMMTDMLPDAVAGIASSLYFTIPAEKIKFIVFTSTETITDRETALRSPLVQVMIKLGIVKEENVLFWADLPNCETGVCIAV
Radioactivity (cpm) Round 1 ([1]; crude enzyme solution diluted 200-fold, lactose, 14C-CMP-sialic acid, 2 minutes, 30° C., Round 1): 1552 cpm | Radioactivity (cpm) Round 2 ([1]; crude enzyme solution diluted 200-fold, lactose, 14C-CMP-sialic acid, 2 minutes, 30° C., Round 2): 1711 cpm | Radioactivity (cpm) Average ([1]; crude enzyme solution diluted 200-fold, lactose, 14C-CMP-sialic acid, 2 minutes, 30° C., average of duplicate): 1631.5 cpm | sialyltransferase activity of the expressed clone (in words) ([1]; crude enzyme solution from E. coli TB1, listed as ISH224-N1C0/pTrc): expressed sialyltransferase; also recorded: retained the activity | β-galactoside-α2,6-sialyltransferase activity (PA-6′-sialyllactose detected) [2]: found to have β-galactoside-α2,6-sialyltransferase activity
